Assays:
Test in all cases: cell-based or functional assay
CK1δ(h) (human) = CK1δ(h) (human) (UniProt P48730)
CHK2(R145W)(h) (human) = CHK2(R145W)(h) (human) (UniProt O96017)
CDK2/cyclinE(h) (human) = CDK2/cyclinE(h) (human) (UniProt P24941)
Pim-3(h) (human) = Pim-3(h) (human) (UniProt Q86V86)
Aurora-B(h) (human) = Aurora-B(h) (human) (UniProt Q96GD4)
EGFR(h) (human) = EGFR(h) (human) (UniProt P00533)
ARK5(h) (human) = target: T1, ARK5(h) (human) (UniProt O60285)
T1 sequence (looked up): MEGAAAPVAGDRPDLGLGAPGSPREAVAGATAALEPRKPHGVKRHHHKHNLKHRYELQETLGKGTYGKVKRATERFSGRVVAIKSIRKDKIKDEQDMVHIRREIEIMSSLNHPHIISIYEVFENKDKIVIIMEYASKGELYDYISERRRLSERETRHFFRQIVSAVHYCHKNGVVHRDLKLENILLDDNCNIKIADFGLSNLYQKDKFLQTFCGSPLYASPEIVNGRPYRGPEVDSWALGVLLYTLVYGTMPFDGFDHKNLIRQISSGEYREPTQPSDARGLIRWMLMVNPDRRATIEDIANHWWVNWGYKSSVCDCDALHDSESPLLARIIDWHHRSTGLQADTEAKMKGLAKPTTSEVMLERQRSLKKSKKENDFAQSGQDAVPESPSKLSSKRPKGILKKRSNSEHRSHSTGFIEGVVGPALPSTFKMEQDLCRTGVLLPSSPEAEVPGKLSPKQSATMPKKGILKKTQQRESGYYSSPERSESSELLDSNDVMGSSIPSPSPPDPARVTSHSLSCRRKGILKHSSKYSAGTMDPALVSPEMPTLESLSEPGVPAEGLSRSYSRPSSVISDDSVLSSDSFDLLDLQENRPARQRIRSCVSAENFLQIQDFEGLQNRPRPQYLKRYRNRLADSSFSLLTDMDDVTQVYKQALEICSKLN

SAPK2a(T106M)(h) (human) = SAPK2a(T106M)(h) (human) (UniProt Q16539)
Sequence of SAPK2a(T106M)(h) (human) (Q16539 whole entry T106M): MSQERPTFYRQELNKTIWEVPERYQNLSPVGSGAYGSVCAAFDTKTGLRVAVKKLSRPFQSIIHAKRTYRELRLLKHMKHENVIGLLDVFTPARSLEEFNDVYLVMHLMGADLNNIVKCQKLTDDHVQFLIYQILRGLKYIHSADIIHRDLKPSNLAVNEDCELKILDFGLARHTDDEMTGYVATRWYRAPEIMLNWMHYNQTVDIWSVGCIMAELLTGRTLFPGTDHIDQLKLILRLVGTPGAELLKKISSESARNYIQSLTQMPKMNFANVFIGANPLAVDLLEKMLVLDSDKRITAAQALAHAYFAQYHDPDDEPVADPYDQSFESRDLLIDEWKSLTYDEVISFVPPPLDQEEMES

Hck(h) (human) = Hck(h) (human) (UniProt P08631)
PKD2(h) (human) = target: T2, PKD2(h) (human) (UniProt Q9BZL6)
T2 sequence (looked up): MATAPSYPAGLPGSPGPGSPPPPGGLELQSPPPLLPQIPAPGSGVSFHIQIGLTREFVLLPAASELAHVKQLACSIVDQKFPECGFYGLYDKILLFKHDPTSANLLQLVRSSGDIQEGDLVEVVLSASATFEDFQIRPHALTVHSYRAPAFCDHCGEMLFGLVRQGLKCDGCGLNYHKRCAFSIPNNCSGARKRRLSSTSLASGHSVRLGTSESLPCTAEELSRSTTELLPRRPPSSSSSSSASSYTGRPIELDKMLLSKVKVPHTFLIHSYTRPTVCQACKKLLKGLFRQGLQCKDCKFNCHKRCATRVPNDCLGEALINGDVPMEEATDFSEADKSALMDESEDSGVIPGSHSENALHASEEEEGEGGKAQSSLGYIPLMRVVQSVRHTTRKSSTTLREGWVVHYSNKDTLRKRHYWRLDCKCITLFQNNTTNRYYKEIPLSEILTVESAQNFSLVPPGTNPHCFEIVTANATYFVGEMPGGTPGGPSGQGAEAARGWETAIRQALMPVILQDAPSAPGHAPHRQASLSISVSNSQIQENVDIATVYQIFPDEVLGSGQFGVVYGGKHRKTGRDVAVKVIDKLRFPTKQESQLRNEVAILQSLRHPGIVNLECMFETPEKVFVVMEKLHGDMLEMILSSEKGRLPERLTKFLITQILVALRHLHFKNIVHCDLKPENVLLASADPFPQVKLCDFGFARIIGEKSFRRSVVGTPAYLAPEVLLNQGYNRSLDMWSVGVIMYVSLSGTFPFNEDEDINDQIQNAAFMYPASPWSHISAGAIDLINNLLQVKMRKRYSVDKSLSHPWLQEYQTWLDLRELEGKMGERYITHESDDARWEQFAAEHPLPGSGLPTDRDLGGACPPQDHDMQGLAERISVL

DAPK1(h) (human) = DAPK1(h) (human) (UniProt P53355)
EphA1(h) (human) = target: T3, EphA1(h) (human) (UniProt P21709)
T3 sequence (looked up): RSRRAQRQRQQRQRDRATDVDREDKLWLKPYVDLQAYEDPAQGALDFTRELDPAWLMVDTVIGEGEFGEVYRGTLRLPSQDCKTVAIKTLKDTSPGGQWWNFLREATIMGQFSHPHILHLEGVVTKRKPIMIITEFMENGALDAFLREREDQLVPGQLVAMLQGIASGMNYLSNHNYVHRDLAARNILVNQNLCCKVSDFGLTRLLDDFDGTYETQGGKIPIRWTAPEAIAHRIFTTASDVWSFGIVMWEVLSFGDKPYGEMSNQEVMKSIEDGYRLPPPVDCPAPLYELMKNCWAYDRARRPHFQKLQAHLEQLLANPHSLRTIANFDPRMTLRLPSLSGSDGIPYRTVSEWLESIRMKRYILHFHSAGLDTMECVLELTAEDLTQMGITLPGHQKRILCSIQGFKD

VRK2(h) (human) = VRK2(h) (human) (UniProt Q86Y07)
Sequence of VRK2(h) (human) (Q86Y07 whole entry): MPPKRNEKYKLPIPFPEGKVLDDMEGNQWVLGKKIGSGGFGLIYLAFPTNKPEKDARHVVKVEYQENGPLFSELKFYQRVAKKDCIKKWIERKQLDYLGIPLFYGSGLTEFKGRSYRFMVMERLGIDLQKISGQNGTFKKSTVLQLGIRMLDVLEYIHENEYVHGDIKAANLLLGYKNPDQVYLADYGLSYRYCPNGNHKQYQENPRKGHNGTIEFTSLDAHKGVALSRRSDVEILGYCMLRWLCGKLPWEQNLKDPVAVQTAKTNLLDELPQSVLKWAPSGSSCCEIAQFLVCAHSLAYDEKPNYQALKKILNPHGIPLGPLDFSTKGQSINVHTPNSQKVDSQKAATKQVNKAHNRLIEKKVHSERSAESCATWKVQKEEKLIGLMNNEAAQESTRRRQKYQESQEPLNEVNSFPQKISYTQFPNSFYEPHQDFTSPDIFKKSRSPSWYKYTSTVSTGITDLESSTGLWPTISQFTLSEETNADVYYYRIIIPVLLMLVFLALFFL

Sequence of Aurora-B(h) (human) (Q96GD4 whole entry): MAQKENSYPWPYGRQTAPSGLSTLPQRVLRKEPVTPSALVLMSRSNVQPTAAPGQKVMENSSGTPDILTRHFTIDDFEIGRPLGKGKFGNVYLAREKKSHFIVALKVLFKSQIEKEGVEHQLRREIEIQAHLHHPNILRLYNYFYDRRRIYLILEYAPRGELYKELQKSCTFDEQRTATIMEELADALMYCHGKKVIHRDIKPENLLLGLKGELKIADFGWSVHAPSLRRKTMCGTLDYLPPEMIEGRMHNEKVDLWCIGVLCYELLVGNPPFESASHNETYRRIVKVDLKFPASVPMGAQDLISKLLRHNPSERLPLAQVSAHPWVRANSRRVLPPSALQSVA
Sequence of CHK2(R145W)(h) (human) (O96017 5-543 R145W limits assumed): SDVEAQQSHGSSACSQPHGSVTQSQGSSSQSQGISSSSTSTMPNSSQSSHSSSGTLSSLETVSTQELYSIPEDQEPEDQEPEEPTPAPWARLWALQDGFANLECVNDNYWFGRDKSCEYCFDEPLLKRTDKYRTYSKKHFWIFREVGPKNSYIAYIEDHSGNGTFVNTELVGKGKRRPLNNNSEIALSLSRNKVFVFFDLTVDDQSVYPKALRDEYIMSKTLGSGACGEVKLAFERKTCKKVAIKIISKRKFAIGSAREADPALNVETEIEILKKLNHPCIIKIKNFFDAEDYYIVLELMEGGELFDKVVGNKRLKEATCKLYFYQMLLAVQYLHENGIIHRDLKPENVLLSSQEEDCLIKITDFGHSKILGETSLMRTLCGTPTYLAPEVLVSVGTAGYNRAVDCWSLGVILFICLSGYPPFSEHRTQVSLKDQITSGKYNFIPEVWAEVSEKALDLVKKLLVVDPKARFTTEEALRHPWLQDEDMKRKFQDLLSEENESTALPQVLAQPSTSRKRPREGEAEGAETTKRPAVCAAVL

Substance	% activity at 100 µM (CK1δ(h) (human))	% activity at 100 µM (CHK2(R145W)(h) (human))	% activity at 100 µM (CDK2/cyclinE(h) (human))	% activity at 100 µM (Pim-3(h) (human))	% activity at 100 µM (Aurora-B(h) (human))	% activity at 100 µM (EGFR(h) (human))	% activity at 100 µM (ARK5(h) (human))	% activity at 100 µM (SAPK2a(T106M)(h) (human))	% activity at 100 µM (Hck(h) (human))	% activity at 100 µM (PKD2(h) (human))	% activity at 100 µM (DAPK1(h) (human))	% activity at 100 µM (EphA1(h) (human))	% activity at 100 µM (VRK2(h) (human))
MMI-0300 (peptide)	92%	33%	94%	80%	128%	21%	78%	97%	72%	33%	46%	73%	161%
MMI-0400 (peptide)	93%	31%	83%	80%	150%	16%	69%	99%	72%	25%	36%	61%	185%
MMI-0500 (peptide)	78%	3%	19%	37%	5%	-1%	20%	32%	78%	10%	0%	40%	169%
